In paper doi:10.1101/2023.05.10.540157 (bioRxiv, 2023):
Like-named read-outs stand apart in the source and are kept apart here.

Key:
[1] = target: T1, mineralocorticoid receptor (MR), NanoBiT fusion LgBiT-MR (UniProt P08235 1-984); experiment: split reporter
T1 sequence: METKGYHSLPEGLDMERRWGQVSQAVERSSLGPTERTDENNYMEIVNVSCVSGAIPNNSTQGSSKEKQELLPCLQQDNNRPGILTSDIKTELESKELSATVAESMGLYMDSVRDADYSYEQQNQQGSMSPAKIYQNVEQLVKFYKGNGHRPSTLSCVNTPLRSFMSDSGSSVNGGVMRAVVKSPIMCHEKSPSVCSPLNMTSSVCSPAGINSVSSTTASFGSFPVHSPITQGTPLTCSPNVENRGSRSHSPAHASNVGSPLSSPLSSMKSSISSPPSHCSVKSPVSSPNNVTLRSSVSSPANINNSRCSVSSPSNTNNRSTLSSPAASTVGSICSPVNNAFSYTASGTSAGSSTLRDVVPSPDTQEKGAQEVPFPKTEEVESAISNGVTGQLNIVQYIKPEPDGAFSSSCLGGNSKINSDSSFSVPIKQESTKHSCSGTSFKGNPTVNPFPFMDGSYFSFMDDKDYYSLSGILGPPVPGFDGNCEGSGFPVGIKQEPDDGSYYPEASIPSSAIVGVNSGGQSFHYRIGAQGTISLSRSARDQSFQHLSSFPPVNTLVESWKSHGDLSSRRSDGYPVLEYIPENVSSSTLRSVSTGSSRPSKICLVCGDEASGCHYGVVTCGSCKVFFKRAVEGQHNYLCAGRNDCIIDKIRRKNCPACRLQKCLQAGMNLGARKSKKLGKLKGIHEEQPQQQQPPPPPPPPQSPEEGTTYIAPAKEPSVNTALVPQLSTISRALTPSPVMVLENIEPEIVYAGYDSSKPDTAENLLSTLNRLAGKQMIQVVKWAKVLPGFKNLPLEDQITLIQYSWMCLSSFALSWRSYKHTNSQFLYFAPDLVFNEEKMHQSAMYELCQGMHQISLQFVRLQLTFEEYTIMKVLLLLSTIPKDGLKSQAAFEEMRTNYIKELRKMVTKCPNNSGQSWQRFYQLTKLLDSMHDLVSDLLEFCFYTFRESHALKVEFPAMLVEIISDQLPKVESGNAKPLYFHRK

[2] = target: T1, mineralocorticoid receptor (MR), …; experiment: split reporter; remark: listed apart in the source

fold induction of NanoBiT luminescence versus solvent [1]: ~6 fold
fold induction of NanoBiT luminescence versus solvent [2]: ~8 fold
B1: glucocorticoid receptor (GR), NanoBiT fusion GR-SmBiT (receptor)
chain: MDSKESLTPGREENPSSVLAQERGDVMDFYKTLRGGATVKVSASSPSLAVASQSDSKQRRLLVDFPKGSVSNAQQPDLSKAVSLSMGLYMGETETKVMGNDLGFPQQGQISLSSGETDLKLLEESIANLNRSTSVPENPKSSASTAVSAAPTEKEFPKTHSDVSSEQQHLKGQTGTNGGNVKLYTTDQSTFDILQDLEFSSGSPGKETNESPWRSDLLIDENCLLSPLAGEDDSFLLEGNSNEDCKPLILPDTKPKIKDNGDLVLSSPSNVTLPQVKTEKEDFIELCTPGVIKQEKLGTVYCQASFPGANIIGNKMSAISVHGVSTSGGQMYHYDMNTASLSQQQDQKPIFNVIPPIPVGSENWNRCQGSGDDNLTSLGTLNFPGRTVFSNGYSSPSMRPDVSSPPSSSSTATTGPPPKLCLVCSDEASGCHYGVLTCGSCKVFFKRAVEGQHNYLCAGRNDCIIDKIRRKNCPACRYRKCLQAGMNLEARKTKKKIKGIQQATTGVSQETSENPGNKTIVPATLPQLTPTLVSLLEVIEPEVLYAGYDSSVPDSTWRIMTTLNMLGGRQVIAAVKWAKAIPGFRNLHLDDQMTLLQYSWMFLMAFALGWRSYRQSSANLLCFAPDLIINEQRMTLPCMYDQCKHMLYVSSELHRLQVSYEEYLCMKTLLLLSSVPKDGLKSQELFDEIRMTYIKELGKAIVKREGNSSQNWQRFYQLTKLLDSMHEVVENLLNYCFQTFLDKTMSIEFPEMLAEIITNQIPKYSNGNIKKLLFHQK
